Measurements: patent US20250289861A1 (IMMUNOFORGE, published 2025)
Changes are numbered by the printed parent chain. Names may count otherwise.

B1: PF1802_M021 (GLP1-Fc-mut.IGF1) (Fc fusion)
chain: HGEGTFTSDVSSYLEEQAAKEFIAWLVKGGGGSAPAPGGGGSDKTHTCPPCPAPELLGGPSVFLFPPKPKDTLMISRTPEVTCVVVDVSHEDPEVKFNWYVDGVEVHNAKTKPREEQYASTYRVVSVLTVEHMDWLNGKEYKCKVSNKALPAPIEKTISKAKGQPREPQVYTLPPSREEMTKNQVSLTCLVKGFYPSDIAVEWESNGQPENNYKTTPPVLDSDGSFFLYSKLTVDKSRWQQGNVFSCSVLHEALHNHYTQKSLSLSPGKGGGGSGGGGSGGGGSGGGGSGAHSGPATLCGAELVDALQFVCGDRGFYFNKPTGYGSSSRRAPQTGIVDECCARSCDLRRLEMYCAPLKPTKST
notes: M008 with a half-life-increasing Fc: N297A, L309E, Q311M, M428L
B2: PF1802_M020 (GLP1-Fc-mut.IGF1) (Fc fusion)
chain: B1 chain with E131Y
notes: M008 with a half-life-increasing Fc: N297A, L309Y, Q311M, M428L
B3: PF1802_M022 (GLP1-Fc-mut.IGF1) (Fc fusion)
chain: B1 chain with M133W
notes: M008 with a half-life-increasing Fc: N297A, L309E, Q311W, M428L

Target: T1, Human FcRn-GST protein (human, UniProt P55899 24-297; P61769 21-119, limits assumed)
T1 construct: not shown: GST tag
Assay: ELISA at pH 6.0: fusion protein coated on the plate, Human FcRn-GST titrated (x axis, ug/ml), anti-GST Ab-HRP, A450
Procedure: To investigate the binding affinity of the PF1802_M020, M021, and M022 substances, obtained by introducing three types of blood half-life-increasing Fc to the PF1802-M008 candidate substance, to human FcRn, ELISA was performed, and to investigate the difference in binding affinity depending on pH, two situations at pH 6.0 and pH 7.4 were prepared, respectively. Specifically, each of the PF1802_M020, M021, and M022 substances was coated at 4 μg/mL on a 96 well immunoplate, and reacted with PBS (pH 6.0 and 7.4) containing 4% skim milk at room temperature for 1 hour to block non-specific binding. Thereafter, the Human FcRn-GST protein was diluted 4-fold from a maximum concentration of 5 μg/mL to 0.0003 μg/mL using PBS (pH 6.0, 7.4) containing 1% skim milk, and then dispensed into each well, followed by incubation at room temperature for 1 hour.

T1 sequence (P55899 24-297 limits assumed, chain 1 of 2): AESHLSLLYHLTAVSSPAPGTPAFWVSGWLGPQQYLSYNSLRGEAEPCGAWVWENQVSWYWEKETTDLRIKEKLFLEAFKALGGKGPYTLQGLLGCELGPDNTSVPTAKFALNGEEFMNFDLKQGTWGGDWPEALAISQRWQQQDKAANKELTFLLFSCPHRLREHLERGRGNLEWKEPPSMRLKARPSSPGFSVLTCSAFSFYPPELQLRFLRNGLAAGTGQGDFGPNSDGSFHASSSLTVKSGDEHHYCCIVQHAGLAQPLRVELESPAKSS
T1 sequence (P61769 21-119 limits assumed, chain 2 of 2): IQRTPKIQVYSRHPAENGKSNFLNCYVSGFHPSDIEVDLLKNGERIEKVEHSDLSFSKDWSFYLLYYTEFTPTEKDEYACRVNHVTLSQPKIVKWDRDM

Binder | EC50 (read off the curve) [mg/L]
B1 | ~0.03
B2 | ~0.04
B3 | ~0.03
